{
  "source": "paper PMC10827914",
  "about": "(Cellular and Molecular Life Sciences: CMLS, 2024)",
  "key": {"HUVEC": {"system": "HUVEC", "assay": "Cytotoxicity assay on adherent and non-adherent HUVEC", "format": "cell-based, human", "details": "adherent and non-adherent cells, concentrations lower than 100 pg/ml, 24 h, MTT", "protocol": "The supernatant was removed using a Pasteur pipet connected to a vacuum pump, and 200 µL of dimethyl sulfoxide was then added to each well to dissolve the formazan crystals. The absorbance at 570 nm was then read using a microtiter plate reader.\nThe cytotoxicity assay with cell in suspension was carried out following the same protocol except that the overnight incubation of the microtiter plate after cell plating was omitted."}, "CD13 expressed in HUVEC": {"system": "CD13 expressed in HUVEC", "assay": "Inhibition of cell-associated CD13 enzymatic activity, HUVEC", "format": "cell-based, human", "details": "3 × 10^5 cells/well, L-alanine p-nitroanilide, 30 min, 37 °C, absorbance 405 nm", "protocol": "Fig. 5 Quantification of CD13 expressed by HL-60 and HUVEC by western blotting and FACS analyses, and determination of their enzymatic activity. A Western blotting (WB) analysis of CD13 expression in HL-60 cells and HUVEC. For both cell lines, 2 µg of cell lysates were loaded in each well (n = 4–5 replicates, as indicated). After blotting, the membrane was cut and analyzed for CD13 and actin expression as described in Material and methods. The results of one representative experiment, out of three independent experiments performed, are shown (bars, ratio of CD13/actin band intensity, mean ± SEM). Recombinant human CD13 (rCD13) (20 ng) was loaded as positive control. MW, molecular weight markers. B FACS analysis of CD13 expression in HUVEC and HL-60 cells. The cells were incubated with mAb WM15 (10 μg/mL) and stained with a FITC-labeled goat anti-mouse IgG (H + L) secondary antibody. Data were expressed as fluorescence intensity and normalized to the number of cells. The cumulative results of three independent experiments are shown (each performed in duplicate; mean ± SEM). C Enzyme activity assay of CD13 expressed in HUVEC and HL-60 cells. […] Absorbance at 405 nm was measured using a plate reader. The enzyme units in each sample were calculated using rCD13 as a standard and were normalized to the number of cells. […] The absorbance was measured at 405 nm using a plate reader. […]"}},
  "data": [
    {"substance": "VGCARRYCS-TNF [G4-TNF, recombinant murine TNF fused to the C-terminus of G4]", "values": [
      {"measurement": "Cytotoxic effects on HUVEC (in words)", "setting": "HUVEC", "value": "No or minimal cytotoxic effects"},
      {"measurement": "Inhibition of CD13 enzymatic activity associated with HUVEC (in words)", "setting": "CD13 expressed in HUVEC", "value": "did not inhibit"}
    ]}
  ]
}
